B1: Protein Vpu (Human immunodeficiency virus type 1 group M subtype B (isolate BH10) (HIV-1)), P69699 (parent)
chain: MQPIQIAIVALVVAIIIAIVVWSIVIIEYRKILRQRKIDRLIDRLIERAEDSGNESEGEISALVEMGVEMGHHAPWDVDDL
B2: Bone marrow stromal antigen 2 (Homo sapiens), Q10589 (parent)
chain: MASTSYDYCRVPMEDGDKRCKLLLGIGILVLLIIVILGVPLIIFTIKANSEACRDGLRAVMECRNVTHLLQQELTEAQKGFQDVEAQAATCNHTVMALMASLDAEKAQGQKKVEELEGEITTLNHKLQDASAEVERLRRENQVLSVRIADKKYYPSSQDSSSAAAPQLLIVLLGLSALLQ
partner: B1 chain

Variants of: B1
Conditions: with bst2_human BST2, Q10589

Row | Variant | effect of a mutation on the interaction
1 | A10F;A14F;A18F | decreasing interaction
2 | A14F | decreasing interaction
3 | W22A | decreasing interaction

Variants of: B1
Conditions: with bst2_human BST2, Q10589
Remark: another data set of the same source

Row | Variant | effect of a mutation on the interaction
4 | A10F;A14F;A18F | disrupting interaction

Variants of: B2
Conditions: with vpu_hv1b1 vpu, P69699

Row | Variant | effect of a mutation on the interaction
5 | I34A | disrupting interaction
6 | L41A | disrupting interaction
7 | L37A | disrupting interaction
8 | I26A | decreasing interaction
9 | L24I;T45I | disrupting interaction strength
